Experimental data reported in IntAct's records for PubMed 31515488.

B1: Intraflagellar transport protein 27 homolog (Homo sapiens), Q9BW83 (parent)
chain: MVKLAAKCILAGDPAVGKTALAQIFRSDGAHFQKSYTLTTGMDLVVKTVPVPDTGDSVELFIFDSAGKELFSEMLDKLWESPNVLCLVYDVTNEESFNNCSKWLEKARSQAPGISLPGVLVGNKTDLAGRRAVDSAEARAWALGQGLECFETSVKEMENFEAPFHCLAKQFHQLYREKVEVFRALA
partner: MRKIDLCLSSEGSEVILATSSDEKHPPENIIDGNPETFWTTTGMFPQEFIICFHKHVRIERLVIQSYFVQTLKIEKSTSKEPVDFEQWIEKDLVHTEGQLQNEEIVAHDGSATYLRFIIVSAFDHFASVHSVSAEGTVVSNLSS
B2: Cyclic AMP-dependent transcription factor ATF-4 (Homo sapiens), P18848 (parent)
chain: MTEMSFLSSEVLVGDLMSPFDQSGLGAEESLGLLDDYLEVAKHFKPHGFSSDKAKAGSSEWLAVDGLVSPSNNSKEDAFSGTDWMLEKMDLKEFDLDALLGIDDLETMPDDLLTTLDDTCDLFAPLVQETNKQPPQTVNPIGHLPESLTKPDQVAPFTFLQPLPLSPGVLSSTPDHSFSLELGSEVDITEGDRKPDYTAYVAMIPQCIKEEDTPSDNDSGICMSPESYLGSPQHSPSTRGSPNRSLPSPGVLCGSARPKPYDPPGEKMVAAKVKGEKLDKKLKKMEQNKTAATRYRQKKRAEQEALTGECKELEKKNEALKERADSLAKEIQYLKDLIEEVRKARGKKRVP
partner: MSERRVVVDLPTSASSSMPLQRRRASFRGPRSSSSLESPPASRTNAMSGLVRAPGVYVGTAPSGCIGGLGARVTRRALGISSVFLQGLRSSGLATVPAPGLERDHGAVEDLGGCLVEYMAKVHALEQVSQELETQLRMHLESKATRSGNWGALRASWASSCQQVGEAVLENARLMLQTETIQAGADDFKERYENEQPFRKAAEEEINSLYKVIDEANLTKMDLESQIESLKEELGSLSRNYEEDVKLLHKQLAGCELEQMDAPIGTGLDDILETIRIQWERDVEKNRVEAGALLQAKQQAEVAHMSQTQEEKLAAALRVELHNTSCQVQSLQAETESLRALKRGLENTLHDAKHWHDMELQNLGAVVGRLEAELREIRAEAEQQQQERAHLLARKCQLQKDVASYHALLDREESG
B3: BTB/POZ domain-containing protein KCTD6 (Homo sapiens), Q8NC69 (parent)
chain: MDNGDWGYMMTDPVTLNVGGHLYTTSLTTLTRYPDSMLGAMFGGDFPTARDPQGNYFIDRDGPLFRYVLNFLRTSELTLPLDFKEFDLLRKEADFYQIEPLIQCLNDPKPLYPMDTFEEVVELSSTRKLSKYSNPVAVIITQLTITTKVHSLLEGISNYFTKWNKHMMDTRDCQVSFTFGPCDYHQEVSLRVHLMEYITKQGFTIRNTRVHHMSERANENTVEHNWTFCRLARKTDD
B4: Zinc finger protein Aiolos (Homo sapiens), Q9UKT9 (parent)
chain: MEDIQTNAELKSTQEQSVPAESAAVLNDYSLTKSHEMENVDSGEGPANEDEDIGDDSMKVKDEYSERDENVLKSEPMGNAEEPEIPYSYSREYNEYENIKLERHVVSFDSSRPTSGKMNCDVCGLSCISFNVLMVHKRSHTGERPFQCNQCGASFTQKGNLLRHIKLHTGEKPFKCHLCNYACQRRDALTGHLRTHSVEKPYKCEFCGRSYKQRSSLEEHKERCRTFLQSTDPGDTASAEARHIKAEMGSERALVLDRLASNVAKRKSSMPQKFIGEKRHCFDVNYNSSYMYEKESELIQTRMMDQAINNAISYLGAEALRPLVQTPPAPTSEMVPVISSMYPIALTRAEMSNGAPQELEKKSIHLPEKSVPSERGLSPNNSGHDSTDTDSNHEERQNHIYQQNHMVLSRARNGMPLLKEVPRSYELLKPPPICPRDSVKVINKEGEVMDVYRCDHCRVLFLDYVMFTIHMGCHGFRDPFECNMCGYRSHDRYEFSSHIARGEHRALLK
partner: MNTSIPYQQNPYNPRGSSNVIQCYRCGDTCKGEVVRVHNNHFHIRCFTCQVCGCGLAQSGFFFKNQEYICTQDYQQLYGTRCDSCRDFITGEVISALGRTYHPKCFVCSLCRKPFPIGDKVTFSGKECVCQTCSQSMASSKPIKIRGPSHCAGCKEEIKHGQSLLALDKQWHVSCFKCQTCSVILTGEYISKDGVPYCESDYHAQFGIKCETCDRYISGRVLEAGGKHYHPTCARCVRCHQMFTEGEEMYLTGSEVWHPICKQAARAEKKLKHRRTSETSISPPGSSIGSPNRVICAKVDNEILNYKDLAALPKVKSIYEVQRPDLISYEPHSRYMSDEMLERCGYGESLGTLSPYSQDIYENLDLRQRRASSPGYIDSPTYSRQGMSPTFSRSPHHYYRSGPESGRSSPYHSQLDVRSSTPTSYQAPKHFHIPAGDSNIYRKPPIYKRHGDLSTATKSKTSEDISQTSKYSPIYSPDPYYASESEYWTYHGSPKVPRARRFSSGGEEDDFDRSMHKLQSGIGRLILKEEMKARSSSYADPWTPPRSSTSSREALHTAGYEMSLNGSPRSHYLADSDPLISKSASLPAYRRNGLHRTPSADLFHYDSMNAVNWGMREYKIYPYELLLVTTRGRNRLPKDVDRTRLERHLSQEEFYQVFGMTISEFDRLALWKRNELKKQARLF
B5: Isoform Long of Autophagy protein 5 (Homo sapiens), Q9H1Y0-1 (parent)
chain: MTDDKDVLRDVWFGRIPTCFTLYQDEITEREAEPYYLLLPRVSYLTLVTDKVKKHFQKVMRQEDISEIWFEYEGTPLKWHYPIGLLFDLLASSSALPWNITVHFKSFPEKDLLHCPSKDAIEAHFMSCMKEADALKHKSQVINEMQKKDHKQLWMGLQNDRFDQFWAINRKLMEYPAEENGFRYIPFRIYQTTTERPFIQKLFRPVAADGQLHTLGDLLKEVCPSAIDPEDGEKKNQVMIHGIEPMLETPLQWLSEHLSYPDNFLHISIIPQPTD
partner: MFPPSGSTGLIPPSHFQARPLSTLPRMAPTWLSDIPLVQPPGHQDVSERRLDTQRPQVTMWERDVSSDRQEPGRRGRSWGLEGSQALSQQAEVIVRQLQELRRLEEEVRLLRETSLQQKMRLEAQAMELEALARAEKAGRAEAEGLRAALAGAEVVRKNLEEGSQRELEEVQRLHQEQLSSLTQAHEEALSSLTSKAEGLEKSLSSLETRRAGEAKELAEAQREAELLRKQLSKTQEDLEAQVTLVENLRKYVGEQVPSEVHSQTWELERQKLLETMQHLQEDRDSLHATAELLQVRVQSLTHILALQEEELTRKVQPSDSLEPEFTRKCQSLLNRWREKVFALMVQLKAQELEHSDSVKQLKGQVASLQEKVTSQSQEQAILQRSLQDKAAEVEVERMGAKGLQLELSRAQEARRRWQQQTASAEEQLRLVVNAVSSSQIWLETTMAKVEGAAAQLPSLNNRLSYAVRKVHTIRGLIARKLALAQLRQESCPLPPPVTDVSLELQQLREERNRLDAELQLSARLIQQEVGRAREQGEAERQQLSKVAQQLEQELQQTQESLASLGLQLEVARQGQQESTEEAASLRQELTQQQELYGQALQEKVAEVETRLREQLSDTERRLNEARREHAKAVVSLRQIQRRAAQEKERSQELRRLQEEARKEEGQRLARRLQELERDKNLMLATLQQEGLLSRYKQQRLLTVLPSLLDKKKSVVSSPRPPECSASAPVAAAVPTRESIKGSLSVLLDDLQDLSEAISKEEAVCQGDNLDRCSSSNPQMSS
B6: Isoform 1 of Nuclear RNA export factor 3 (Homo sapiens), Q9H4D5-1 (parent)
chain: MSLPSGHTTGHTDQVVQRRARCWDIYQRRFSSRSEPVNPGMHSSSHQQQDGDAAMHGAHMDSPVRYTPYTISPYNRKGSFRKQDQTHVNMEREQKPPERRMEGNMPDGTLGSWFKITVPFGIKYNEKWLLNLIQNECSVPFVPVEFHYENMHASFFVENASIAYALKNVSGKIWDEDNEKISIFVNPAGIPHFVHRELKSEKVEQIKLAMNQQCDVSQEALDIQRLPFYPDMVNRDTKMASNPRKCMAASLDVHEENIPTVMSAGEMDKWKGIEPGEKCADRSPVCTTFSDTSSNINSILELFPKLLCLDGQQSPRATLCGTEAHKRLPTCKGSFFGSEMLKNLVLQFLQQYYLIYDSGDRQGLLSAYHDEACFSLSIPFNPEDSAPSSFCKFFKDSRNIKILKDPYLRGELLKHTKLDIVDSLSALPKTQHDLSSFLVDMWYQTEWMLCFSVNGVFKEVEGQSQGSVLAFTRTFIATPGSSSSLCIVNDKLFVRDTSHQGTQSALFTLVPTAFSSSVPAFSQEQQKMLPS
partner: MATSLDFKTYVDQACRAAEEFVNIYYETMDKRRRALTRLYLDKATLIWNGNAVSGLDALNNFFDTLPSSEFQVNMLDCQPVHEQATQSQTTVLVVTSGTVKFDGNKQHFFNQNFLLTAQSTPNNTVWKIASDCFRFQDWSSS
B7: Protein LDOC1 (Homo sapiens), O95751 (parent)
chain: MVDELVLLLHALLMRHRALSIENSQLMEQLRLLVCERASLLRQVRPPSCPVPFPETFNGESSRLPEFIVQTASYMLVNENRFCNDAMKVAFLISLLTGEAEEWVVPYIEMDSPILGDYRAFLDEMKQCFGWDDDEDDDDEEEEDDY
partner: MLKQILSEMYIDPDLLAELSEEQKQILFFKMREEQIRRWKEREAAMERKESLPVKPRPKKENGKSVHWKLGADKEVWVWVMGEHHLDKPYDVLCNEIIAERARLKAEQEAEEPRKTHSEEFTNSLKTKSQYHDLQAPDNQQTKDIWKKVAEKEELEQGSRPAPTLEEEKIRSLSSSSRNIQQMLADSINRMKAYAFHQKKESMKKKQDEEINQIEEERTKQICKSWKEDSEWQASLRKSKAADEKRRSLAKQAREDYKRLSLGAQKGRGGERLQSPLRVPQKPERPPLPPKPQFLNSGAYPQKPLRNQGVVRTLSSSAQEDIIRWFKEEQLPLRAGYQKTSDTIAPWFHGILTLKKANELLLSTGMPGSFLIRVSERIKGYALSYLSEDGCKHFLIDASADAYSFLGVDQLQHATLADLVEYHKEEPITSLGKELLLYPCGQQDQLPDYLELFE
B8: Protein LDOC1 (Homo sapiens), O95751 (parent)
chain: B7 chain
partner: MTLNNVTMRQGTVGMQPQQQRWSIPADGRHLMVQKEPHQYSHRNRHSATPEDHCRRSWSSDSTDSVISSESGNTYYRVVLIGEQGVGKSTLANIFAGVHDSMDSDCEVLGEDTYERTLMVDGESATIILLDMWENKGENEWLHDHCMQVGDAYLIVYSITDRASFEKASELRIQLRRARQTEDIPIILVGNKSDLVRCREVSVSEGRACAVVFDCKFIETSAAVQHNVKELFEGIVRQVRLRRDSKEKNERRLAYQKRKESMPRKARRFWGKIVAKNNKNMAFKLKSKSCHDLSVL
B9: Dynein axonemal assembly factor 19 (Homo sapiens), Q8IW40 (parent)
chain: MERNDIINFKALEKELQAALTADEKYKRENAAKLRAVEQRVASYEEFRGIVLASHLKPLERKDKMGGKRTVPWNCHTIQGRTFQDVATEISPEKAPLQPETSADFYRDWRRHLPSGPERYQALLQLGGPRLGCLFQTDVGFGLLGELLVALADHVGPADRAAVLGILCSLASTGRFTLNLSLLSRAERESCKGLFQKLQAMGNPRSVKEGLSWEEQGLEEQSGGLQEEERLLQELLELYQVD
B10: Caspase-9 (Homo sapiens), P55211 (parent)
chain: MDEADRRLLRRCRLRLVEELQVDQLWDALLSRELFRPHMIEDIQRAGSGSRRDQARQLIIDLETRGSQALPLFISCLEDTGQDMLASFLRTNRQAAKLSKPTLENLTPVVLRPEIRKPEVLRPETPRPVDIGSGGFGDVGALESLRGNADLAYILSMEPCGHCLIINNVNFCRESGLRTRTGSNIDCEKLRRRFSSLHFMVEVKGDLTAKKMVLALLELAQQDHGALDCCVVVILSHGCQASHLQFPGAVYGTDGCPVSVEKIVNIFNGTSCPSLGGKPKLFFIQACGGEQKDHGFEVASTSPEDESPGSNPEPDATPFQEGLRTFDQLDAISSLPTPSDIFVSYSTFPGFVSWRDPKSGSWYVETLDDIFEQWAHSEDLQSLLLRVANAVSVKGIYKQMPGCFNFLRKKLFFKTS

Variants of: B1
Conditions: with ift25_human IFT25, Q9Y547

effect of a mutation on the interaction | Variant
disrupting interaction strength | A142V

Variants of: B2
Conditions: with bfsp2_human BFSP2, Q13515

effect of a mutation on the interaction | Variant
with no effect | A324V
disrupting interaction strength | E322D
with no effect | P258A
with no effect | T137S

Variants of: B3
Conditions: with prp31_human PRPF31, Q8WWY3
prp31_human PRPF31, Q8WWY3, sequence (Q8WWY3 whole entry): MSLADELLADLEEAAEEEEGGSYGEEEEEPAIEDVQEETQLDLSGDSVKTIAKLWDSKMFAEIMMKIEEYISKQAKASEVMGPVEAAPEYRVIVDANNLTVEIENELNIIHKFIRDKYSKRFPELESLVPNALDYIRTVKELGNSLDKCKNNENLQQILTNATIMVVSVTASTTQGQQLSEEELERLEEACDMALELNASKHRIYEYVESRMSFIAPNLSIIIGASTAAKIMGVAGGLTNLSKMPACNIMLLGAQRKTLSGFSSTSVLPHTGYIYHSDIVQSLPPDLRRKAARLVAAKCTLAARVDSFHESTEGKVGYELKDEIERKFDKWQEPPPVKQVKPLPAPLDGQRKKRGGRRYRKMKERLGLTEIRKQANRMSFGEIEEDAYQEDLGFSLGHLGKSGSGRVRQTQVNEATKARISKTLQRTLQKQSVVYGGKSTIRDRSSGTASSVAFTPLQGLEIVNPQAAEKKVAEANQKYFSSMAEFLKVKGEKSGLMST

effect of a mutation on the interaction | Variant
with no effect | N207S

Variants of: B3
Conditions: with echp_human EHHADH

effect of a mutation on the interaction | Variant
with no effect | N207S

Variants of: B4
Conditions: with ablm3_human ABLIM3, O94929

effect of a mutation on the interaction | Variant
with no effect | N119D
with no effect | A24V

Variants of: B5
Conditions: with cchcr_human CCHCR1, Q8TD31

Variant | effect of a mutation on the interaction
K58M | with no effect

Variants of: B6
Conditions: with nxt2_human NXT2, Q9NPJ8

effect of a mutation on the interaction | Variant
with no effect | T9K

Variants of: B6
Conditions: with nxt2_human NXT2, Q9NPJ8
Remark: another data set of the same source

effect of a mutation on the interaction | Variant
disrupting interaction strength | R409W

Variants of: B7
Conditions: with sh24a_human SH2D4A

effect of a mutation on the interaction | Variant
disrupting interaction strength | L12H

Variants of: B8
Conditions: with gem_human GEM

effect of a mutation on the interaction | Variant
disrupting interaction strength | L12H

Variants of: B9
Conditions: with hgs_human HGS

effect of a mutation on the interaction | Variant
with no effect | K27R

Variants of: B9
Conditions: with vac14_human VAC14, Q08AM6
vac14_human VAC14, Q08AM6, sequence (Q08AM6 whole entry): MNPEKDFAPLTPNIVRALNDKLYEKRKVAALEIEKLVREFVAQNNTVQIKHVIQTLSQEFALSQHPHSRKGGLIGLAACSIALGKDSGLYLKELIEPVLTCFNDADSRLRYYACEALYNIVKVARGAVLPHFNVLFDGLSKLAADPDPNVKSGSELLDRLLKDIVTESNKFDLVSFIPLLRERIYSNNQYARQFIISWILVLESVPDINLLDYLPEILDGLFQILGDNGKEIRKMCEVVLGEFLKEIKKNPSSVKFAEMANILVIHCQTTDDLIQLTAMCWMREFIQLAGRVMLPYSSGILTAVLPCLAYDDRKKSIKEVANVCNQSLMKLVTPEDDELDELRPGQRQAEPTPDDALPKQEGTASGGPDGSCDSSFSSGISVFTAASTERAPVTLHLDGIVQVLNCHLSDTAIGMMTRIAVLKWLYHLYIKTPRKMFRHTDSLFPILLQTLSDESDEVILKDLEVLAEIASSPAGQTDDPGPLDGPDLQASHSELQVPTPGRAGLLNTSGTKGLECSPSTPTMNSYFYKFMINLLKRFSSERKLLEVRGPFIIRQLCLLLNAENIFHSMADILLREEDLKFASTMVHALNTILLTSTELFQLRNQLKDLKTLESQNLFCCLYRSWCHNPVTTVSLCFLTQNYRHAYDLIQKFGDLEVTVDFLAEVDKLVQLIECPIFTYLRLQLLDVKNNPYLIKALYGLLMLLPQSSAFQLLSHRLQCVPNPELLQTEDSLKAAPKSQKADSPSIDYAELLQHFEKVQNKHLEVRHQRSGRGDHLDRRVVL

effect of a mutation on the interaction | Variant
with no effect | H154P
with no effect | H112N

Variants of: B10
Conditions: with birc2_human BIRC2, Q13490
birc2_human BIRC2, Q13490, sequence (Q13490 whole entry): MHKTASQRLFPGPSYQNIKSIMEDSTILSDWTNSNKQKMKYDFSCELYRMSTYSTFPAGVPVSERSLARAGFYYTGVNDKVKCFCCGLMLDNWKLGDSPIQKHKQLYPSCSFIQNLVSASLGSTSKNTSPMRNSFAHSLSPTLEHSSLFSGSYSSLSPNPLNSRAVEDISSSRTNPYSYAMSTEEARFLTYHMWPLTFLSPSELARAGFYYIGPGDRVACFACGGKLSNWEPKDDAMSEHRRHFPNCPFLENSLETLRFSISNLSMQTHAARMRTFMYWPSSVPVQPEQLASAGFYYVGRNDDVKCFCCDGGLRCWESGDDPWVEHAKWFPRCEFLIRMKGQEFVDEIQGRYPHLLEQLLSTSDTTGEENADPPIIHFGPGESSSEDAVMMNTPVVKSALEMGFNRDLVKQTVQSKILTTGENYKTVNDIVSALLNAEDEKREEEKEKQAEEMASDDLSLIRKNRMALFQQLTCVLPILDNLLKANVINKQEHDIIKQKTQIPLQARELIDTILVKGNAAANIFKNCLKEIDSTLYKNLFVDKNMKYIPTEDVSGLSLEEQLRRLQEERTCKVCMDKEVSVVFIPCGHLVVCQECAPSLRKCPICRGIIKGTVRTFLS

effect of a mutation on the interaction | Variant
disrupting interaction strength | R178C
with no effect | Q221R
with no effect | R173H
disrupting interaction strength | T366N
with no effect | P336S

Variants of: B10
Conditions: with xiap_human XIAP

effect of a mutation on the interaction | Variant
with no effect | Q221R
with no effect | P336S
